Columns and labels:
HeLa Kyoto [1] = assay: solubility in G1/S (NP-40 vs SDS abundance) (log2 ratio); higher = more soluble; details: cell cycle stage: G1/S
HeLa Kyoto [2] = assay: melting temperature (median over replicates), in situ; higher = more thermally stable
HeLa Kyoto [3] = assay: solubility change mitosis vs G1/S (difference of NP-40 vs SDS log2 ratios) (log2 ratio difference); higher = more soluble in mitosis
HeLa Kyoto [4] = assay: thermal stability score vs G1/S (z-score of summed log2 fold changes over temperatures); higher = more thermally stable than in G1/S
[5] = cell cycle stage: early G1 (4.5 h after nocodazole release)
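For melting temperature (median over replicates), in situ in this document: HeLa Kyoto cells synchronized by double thymidine or nocodazole block, proteins quantified by TMT10plex mass spectrometry, three independent biological replicates.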
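For solubility change mitosis vs G1/S (difference of NP-40 vs SDS log2 ratios) in this document: synchronized HeLa Kyoto cells (double thymidine block for G1/S, nocodazole release for mitosis), protein amounts in NP-40 versus SDS lysates quantified by mass spectrometry, three biological replicates.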
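For solubility in G1/S (NP-40 vs SDS abundance) in this document: HeLa Kyoto cells arrested at G1/S by double thymidine block, proteins quantified by TMT10plex mass spectrometry in mild NP-40 versus SDS extracts, three biological replicates.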
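For thermal stability score vs G1/S (z-score of summed log2 fold changes over temperatures) in this document: synchronized HeLa Kyoto cells, proteins quantified by TMT10plex mass spectrometry, three biological replicates, mitosis taken 0.5 h after nocodazole release, G1/S directly after double thymidine block.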

PPP2R5D, sequence (chain, as listed by the source): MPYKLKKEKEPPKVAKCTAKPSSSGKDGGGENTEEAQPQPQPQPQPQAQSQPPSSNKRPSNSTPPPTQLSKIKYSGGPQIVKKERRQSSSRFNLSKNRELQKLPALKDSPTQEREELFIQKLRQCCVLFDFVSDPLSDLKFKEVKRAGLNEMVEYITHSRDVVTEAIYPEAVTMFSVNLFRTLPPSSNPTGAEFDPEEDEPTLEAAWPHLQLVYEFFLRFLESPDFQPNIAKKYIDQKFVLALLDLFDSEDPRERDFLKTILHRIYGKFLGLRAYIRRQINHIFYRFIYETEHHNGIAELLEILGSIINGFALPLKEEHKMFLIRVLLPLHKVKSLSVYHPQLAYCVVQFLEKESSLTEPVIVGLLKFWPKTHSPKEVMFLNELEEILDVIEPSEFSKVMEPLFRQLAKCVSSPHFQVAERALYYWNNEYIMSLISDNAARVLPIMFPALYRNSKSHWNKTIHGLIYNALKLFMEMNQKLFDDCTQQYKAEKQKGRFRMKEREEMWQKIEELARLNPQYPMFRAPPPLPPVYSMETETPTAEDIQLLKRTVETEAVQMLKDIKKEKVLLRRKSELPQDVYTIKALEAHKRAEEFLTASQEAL
CHMP5, sequence (chain, as listed by the source): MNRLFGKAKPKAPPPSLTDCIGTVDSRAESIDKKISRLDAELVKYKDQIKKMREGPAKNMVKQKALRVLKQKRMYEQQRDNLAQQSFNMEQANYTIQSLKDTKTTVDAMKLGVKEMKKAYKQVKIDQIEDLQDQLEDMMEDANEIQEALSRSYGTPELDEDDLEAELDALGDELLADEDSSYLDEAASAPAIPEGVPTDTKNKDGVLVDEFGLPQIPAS
CCBL2, sequence (chain, as listed by the source): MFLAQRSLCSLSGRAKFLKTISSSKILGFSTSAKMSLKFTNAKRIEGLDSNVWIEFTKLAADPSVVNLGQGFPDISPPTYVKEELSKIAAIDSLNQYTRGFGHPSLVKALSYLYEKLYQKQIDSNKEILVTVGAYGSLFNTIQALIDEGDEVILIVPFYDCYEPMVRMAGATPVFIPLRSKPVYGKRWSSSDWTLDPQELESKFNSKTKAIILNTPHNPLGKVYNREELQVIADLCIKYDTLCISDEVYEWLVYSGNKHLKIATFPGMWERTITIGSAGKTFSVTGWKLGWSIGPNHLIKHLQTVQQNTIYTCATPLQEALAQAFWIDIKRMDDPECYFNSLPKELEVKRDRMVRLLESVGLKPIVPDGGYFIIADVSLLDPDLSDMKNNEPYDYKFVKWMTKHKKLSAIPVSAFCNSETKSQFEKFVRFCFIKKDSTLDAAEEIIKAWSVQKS

| Substance | solubility in G1/S (log2) (HeLa Kyoto [1]) | melting temperature (HeLa Kyoto [2]; cell cycle stage: G1/S) | melting temperature (HeLa Kyoto [2]; cell cycle stage: mitosis) | solubility change mitosis (log2) (HeLa Kyoto [3]) | thermal stability score (HeLa Kyoto [4]; [5]) | thermal stability score (HeLa Kyoto [4]; cell cycle stage: mitosis) |
| --- | --- | --- | --- | --- | --- | --- |
| MAAPPARADADPSPTSPPTARDTPGRQAEKSETACEDRSNAESLDRLLPPVGTGRSPRKRTTSQCKSEPPLLRTSKRTIYTAGRPPWYNEHGTQSKEAFAIGLGGGSASGKTTVARMIIEALDVPWVVLLSMDSFYKVLTEQQQEQAAHNNFNFDHPDAFDFDLIISTLKKLKQGKSVKVPIYDFTTHSRKKDWKTLYGANVIIFEGIMAFADKTLLELLDMKIFVDTDSDIRLVRRLRRDISERGRDIEGVIKQYNKFVKPSFDQYIQPTMRLADIVVPRGSGNTVAIDLIVQHVHSQLEERELSVRAALASAHQCHPLPRTLSVLKSTPQVRGMHTIIRDKETSRDEFIFYSKRLMRLLIEHALSFLPFQDCVVQTPQGQDYAGKCYAGKQITGVSILRAGETMEPALRAVCKDVRIGTILIQTNQLTGEPELHYLRLPKDISDDHVILMDCTVSTGAAAMMAVRVLLDHDVPEDKIFLLSLLMAEMGVHSVAYAFPRVRIITTAVDKRVNDLFRIIPGIGNFGDRYFGTDAVPDGSDEEEVAYTG [UCKL1] | -0.0507 | 51.6 °C | 51.6 °C | 0.0371 | -1.2 | -0.843 |
| MSSLAVRDPAMDRSLRSVFVGNIPYEATEEQLKDIFSEVGSVVSFRLVYDRETGKPKGYGFCEYQDQETALSAMRNLNGREFSGRALRVDNAASEKNKEELKSLGPAAPIIDSPYGDPIDPEDAPESITRAVASLPPEQMFELMKQMKLCVQNSHQEARNMLLQNPQLAYALLQAQVVMRIMDPEIALKILHRKIHVTPLIPGKSQSVSVSGPGPGPGPGLCPGPNVLLNQQNPPAPQPQHLARRPVKDIPPLMQTPIQGGIPAPGPIPAAVPGAGPGSLTPGGAMQPQLGMPGVGPVPLERGQVQMSDPRAPIPRGPVTPGGLPPRGLLGDAPNDPRGGTLLSVTGEVEPRGYLGPPHQGPPMHHASGHDTRGPSSHEMRGGPLGDPRLLIGEPRGPMIDQRGLPMDGRGGRDSRAMETRAMETEVLETRVMERRGMETCAMETRGMEARGMDARGLEMRGPVPSSRGPMTGGIQGPGPINIGAGGPPQGPRQVPGISGVGNPGAGMQGTGIQGTGMQGAGIQGGGMQGAGIQGVSIQGGGIQGGGIQGASKQGGSQPSSFSPGQSQVTPQDQEKAALIMQVLQLTADQIAMLPPEQRQSILILKEQIQKSTGAS [CSTF2T] | -0.00517 | 52.6 °C | 51.9 °C | 0.114 | -0.131 | 0.0128 |
| PPP2R5D | -0.0693 | 48.2 °C | 48.4 °C | 0.0185 | 1.54 | 3.42 |
| MTAPCPPPPPDPQFVLRGTQSPVHALHFCEGAQAQGRPLLFSGSQSGLVHIWSLQTRRAVTTLDGHGGQCVTWLQTLPQGRQLLSQGRDLKLCLWDLAEGRSAVVDSVCLESVGFCRSSILAGGQPRWTLAVPGRGSDEVQILEMPSKTSVCALKPKADAKLGMPMCLRLWQADCSSRPLLLAGYEDGSVVLWDVSEQKVCSRIACHEEPVMDLDFDSQKARGISGSAGKALAVWSLDWQQALQVRGTHELTNPGIAEVTIRPDRKILATAGWDHRIRVFHWRTMQPLAVLAFHSAAVQCVAFTADGLLAAGSKDQRISLWSLYPRA [GNB1L] | 0.0814 | 54.6 °C | 54.2 °C | -0.205 | -0.681 | -0.0471 |
| MSIFTPTNQIRLTNVAVVRMKRAGKRFEIACYKNKVVGWRSGVEKDLDEVLQTHSVFVNVSKGQVAKKEDLISAFGTDDQTEICKQILTKGEVQVSDKERHTQLEQMFRDIATIVADKCVNPETKRPYTVILIERAMKDIHYSVKTNKSTKQQALEVIKQLKEKMKIERAHMRLRFILPVNEGKKLKEKLKPLIKVIESEDYGQQLEIVCLIDPGCFREIDELIKKETKGKGSLEVLNLKDVEEGDEKFE [SBDS] | -0.0131 | 50.4 °C | 50.2 °C | -0.0695 | 1.75 | 2.97 |
| MFPFYSCWRTGLLLLLLAVAVRESWQTEEKTCDLVGEKGKESEKELALVKRLKPLFNKSFESTVGQGSDTYIYIFRVCREAGNHTSGAGLVQINKSNGKETVVGRLNETHIFNGSNWIMLIYKGGDEYDNHCGKEQRRAVVMISCNRHTLADNFNPVSEERGKVQDCFYLFEMDSSLACSPEISHLSVGSILLVTFASLVAVYVVGGFLYQRLVVGAKGMEQFPHLAFWQDLGNLVADGCDFVCRSKPRNVPAAYRGVGDDQLGEESEERDDHLLPM [M6PR] | 0.0483 | 60.3 °C | 59.1 °C | -0.128 | -1.67 | -2.67 |
| MAKISSPTETERCIESLIAVFQKYAGKDGYNYTLSKTEFLSFMNTELAAFTKNQKDPGVLDRMMKKLDTNSDGQLDFSEFLNLIGGLAMACHDSFLKAVPSQKRT [S100A11] | -1.04 | 53.8 °C | 52.6 °C | 0.343 | -4.03 | -4.13 |
| MPTVEELYRNYGILADATEQVGQHKDAYQVILDGVKGGTKEKRLAAQFIPKFFKHFPELADSAINAQLDLCEDEDVSIRRQAIKELPQFATGENLPRVADILTQLLQTDDSAEFNLVNNALLSIFKMDAKGTLGGLFSQILQGEDIVRERAIKFLSTKLKTLPDEVLTKEVEELILTESKKVLEDVTGEEFVLFMKILSGLKSLQTVSGRQQLVELVAEQADLEQTFNPSDPDCVDRLLQCTRQAVPLFSKNVHSTRFVTYFCEQVLPNLGTLTTPVEGLDIQLEVLKLLAEMSSFCGDMEKLETNLRKLFDKLLEYMPLPPEEAENGENAGNEEPKLQFSYVECLLYSFHQLGRKLPDFLTAKLNAEKLKDFKIRLQYFARGLQVYIRQLRLALQGKTGEALKTEENKIKVVALKITNNINVLIKDLFHIPPSYKSTVTLSWKPVQKVEIGQKRASEDTTSGSPPKKSSAGPKRDARQIYNPPSGKYSSNLGNFNYEQRGAFRGSRGGRGWGTRGNRSRGRLY [API5] | 0.323 | 53.7 °C | 52.8 °C | 0.0442 | 1.42 | 1.11 |
| MPKRKAAGQGDMRQEPKRRSARLSAMLVPVTPEVKPKRTSSSRKMKTKSDMMEENIDTSAQAVAETKQEAVVEEDYNENAKNGEAKITEAPASEKEIVEVKEENIEDATEKGGEKKEAVAAEVKNEEEDQKEDEEDQNEEKGEAGKEDKDEKGEEDGKEDKNGNEKGEDAKEKEDGKKGEDGKGNGEDGKEKGEDEKEEEDRKETGDGKENEDGKEKGDKKEGKDVKVKEDEKEREDGKEDEGGNEEEAGKEKEDLKEEEEGKEEDEIKEDDGKKEEPQSIV [HMGN5] | 0.255 | 59.9 °C | 59.8 °C | 0.272 | -0.636 | -5.4 |
| CCBL2 | 0.16 | 57.2 °C | 57.5 °C | -0.21 | -0.947 | -1.75 |
| CHMP5 | 0.437 | 55.2 °C | 52.2 °C | 0.751 | -3.8 | -3.3 |
| MAAVQVVGSWPSVQPREAPREAIPERGNGFRLLSARLCALRPDDSSSARTEIHLLFDQLISENYSEGSGVAPEDVSALLVQACRLVPLNQNHLVSKVSQLIHHLLNRLQVIVDEQHLDFLLAYTISAIHQCSSWTHREILQALAALVYCNGSKCQKYLPELLGNTGLLMKLSDLAQSDPEVRRAAVHCMANLCLSVPGQPYLEEPYQNVCFQAFLTILQSPKSSDMDDITFCMLLQNALKGIQSLLNGGRMKLTQTDELGALLAVLKKFMFHGLPGLNIEMPTVLYPTPLPQYDGRTPIKPQQSESSASRPTLNKKKKSKVKPKKIQQGEEEEKESSGEIEAAPVTGTGRVNLHEGNTWCPSSLGVQSLPLDGSGAAEKDGVSSSFSSSSWKRVSSSESDFSDAEGGMQSKMRSYQAKVRQGALVCFLSTIKSIEKKVLYGYWSAFIPDTPELGSPQSVSLMTLTLKDPSPKTRACALQVLSAILEGSKQFLSVAEDTSDHRRAFTPFSVMIACSIRELHRCLLLALVAESSSQTVTQIIKCLANLVSNAPYDRLKLSLLTKVWNQIKPYIRHKDVNVRVSSLTLLGAIVSTHAPLPEVQLLLQQPCSSGLGNSNSATPHLSPPDWWKKAPAGPSLEETSVSSPKGSSEPCWLIRLCISIVVLPKEDSCSGSDAGSAAGSTYEPSPMRLEALQVLTLLARGYFSMTQAYLMELGEVICKCMGEADPSIQLHGAKLLEELGTGLIQQYKPDSTAAPDQRAPVFLVVMFWTMMLNGPLPRALQNSEHPTLQASACDALSSILPEAFSNLPNDRQMLCITVLLGLNDSKNRLVKAATSRALGVYVLFPCLRQDVIFVADAANAILMSLEDKSLNVRAKAAWSLGNLTDTLIVNMETPDPSFQEEFSGLLLLKMLRSAIEASKDKDKVKSNAVRALGNLLHFLQPSHIEKPTFAEIIEESIQALISTVLTEAAMKVRWNACYAMGNVFKNPALPLGTAPWTSQAYNALTSVVTSCKNFKVRIRSAAALSVPGKREQYGSVDQYARIWNALVTALQKSEDTIDFLEFKYCVSLRTQICQALIHLLSLASASDLPCMKETLELSGNMVQSYILQFLKSGAEGDDTGAPHSPQERDQMVRMALKHMGSIQAPTGDTARRAIMGFLEEILAVCFDSSGSQGALPGLTNQ [HEATR6] | 0.0502 | 50.5 °C | 50.1 °C | -0.216 | -0.697 | 0.141 |
| MGRAGAAAVIPGLALLWAVGLGSAAPSPPRLRLSFQELQAWHGLQTFSLERTCCYQALLVDEERGRLFVGAENHVASLNLDNISKRAKKLAWPAPVEWREECNWAGKDIGTECMNFVKLLHAYNRTHLLACGTGAFHPTCAFVEVGHRAEEPVLRLDPGRIEDGKGKSPYDPRHRAASVLVGEELYSGVAADLMGRDFTIFRSLGQRPSLRTEPHDSRWLNEPKFVKVFWIPESENPDDDKIYFFFRETAVEAAPALGRLSVSRVGQICRNDVGGQRSLVNKWTTFLKARLVCSVPGVEGDTHFDQLQDVFLLSSRDHRTPLLYAVFSTSSSIFQGSAVCVYSMNDVRRAFLGPFAHKEGPMHQWVSYQGRVPYPRPGMCPSKTFGTFSSTKDFPDDVIQFARNHPLMYNSVLPTGGRPLFLQVGANYTFTQIAADRVAAADGHYDVLFIGTDVGTVLKVISVPKGSRPSAEGLLLEELHVFEDSAAVTSMQISSKRHQLYVASRSAVAQIALHRCAAHGRVCTECCLARDPYCAWDGVACTRFQPSAKRRFRRQDVRNGDPSTLCSGDSSRPALLEHKVFGVEGSSAFLECEPRSLQARVEWTFQRAGVTAHTQVLAEERTERTARGLLLRRLRRRDSGVYLCAAVEQGFTQPLRRLSLHVLSATQAERLARAEEAAPAAPPGPKLWYRDFLQLVEPGGGGSANSLRMCRPQPALQSLPLESRRKGRNRRTHAPEPRAERGPRSATHW [SEMA3B] | -0.625 | 55.1 °C | 57.9 °C | -0.384 | 4.5 | 7.7 |
| MADGSLTGGGLEAAAMAPERMGWAVEQELASLEKGLFQDEDSCSDCSYRDKPGSSLQSFMPEGKTFFPEIFQTNQLLFYERFRAYQDYILADCKASEVQEFTAEFLEKVLEPSGWRAVWHTNVFKVLVEITDVDFAALKAVVRLAEPYLCDSQVSTFTMECMKELLDLKEHRLPLQELWVVFDDSGVFDQTALAIEHVRFFYQNIWRSWDEEEEDEYDYFVRCVEPRLRLHYDILEDRVPSGLIVDYHNLLSQCEESYRKFLNLRSSLSNCNSDSEQENISMVEGLKLYSEMEQLKQKLKLIENPLLRYVFGYQKNSNIQAKGVRSSGQKITHVVSSTMMAGLLRSLLTDRLCQEPGEEEREIQFHSDPLSAINACFEGDTVIVCPGHYVVHGTFSIADSIELEGYGLPDDIVIEKRGKGDTFVDCTGADIKISGIKFVQHDAVEGILIVHRGKTTLENCVLQCETTGVTVRTSAEFLMKNSDLYGAKGAGIEIYPGSQCTLSDNGIHHCKEGILIKDFLDEHYDIPKISMVNNIIHNNEGYGVVLVKPTIFSDLQENAEDGTEENKALKIQTSGEPDVAERVDLEELIECATGKMELCARTDPSEQVEGNCEIVNELIAASTQKGQIKKKRLSELGITQADDNLMSQEMFVGIVGNQFKWNGKGSFGTFLF [SHCBP1] | -0.00275 | 49 °C | 50.4 °C | -0.188 | 0.216 | 1.36 |
